The record followed here is patent publication US20040018971A1.

First the molecules themselves.
B1: Her2/neu.48 (peptide)
peptide: HLYQGCQVV
B2: Her2/neu.767 (peptide)
peptide: ILDEAYVMA
B3: Her2/neu.435 (peptide)
peptide: ILHNGAYSL
B4: Her2/neu.5 (peptide)
peptide: ALCRWGLLL
B5: HER2/neu peptide, position 951, 10 amino acids (peptide)
peptide: VYMIMVKCWM
B6: HER2/neu peptide, position 905, 9 amino acids (peptide)
peptide: VWSYGVTVW
B7: HER2/neu peptide, position 952, 8 amino acids (peptide)
peptide: YMIMVKCW
B8: HER2/neu peptide, position 772, 10 amino acids (peptide)
peptide: YVMAGVGSPY
B9: HER2/neu peptide, position 273, 10 amino acids (peptide)
peptide: TYNTDTFESM
B10: HER2/neu peptide, position 959, 11 amino acids (peptide)
peptide: WMIDSECRPRF
B11: HER2/neu peptide, position 424, 8 amino acids (peptide)
peptide: VFQNLQVI
B12: HER2/neu peptide, position 905, 11 amino acids (peptide)
peptide: VWSYGVTVWEL
B13: HER2/neu peptide, position 63, 11 amino acids (peptide)
peptide: TYLPTNASLSF
B14: HER2/neu peptide, position 399, 8 amino acids (peptide)
peptide: VFETLEEI
B15: HER2/neu peptide, position 834, 8 amino acids (peptide)
peptide: SYLEDVRL
B16: HER2/neu peptide, position 63, 9 amino acids (peptide)
peptide: TYLPTNASL
B17: HER2/neu peptide, position 8, 9 amino acids (peptide)
peptide: RWGLLLALL
B18: HER2/neu peptide, position 1111, 10 amino acids (peptide)
peptide: RYSEDPTVPL
B19: HER2/neu peptide, position 907, 10 amino acids (peptide)
peptide: SYGVTVWELM
B20: HER2/neu peptide, position 609, 8 amino acids (peptide)
peptide: SYMPIWKF
B21: HER2/neu peptide, position 907, 9 amino acids (peptide)
peptide: SYGVTVWEL
B22: HER2/neu peptide, position 968, 9 amino acids (peptide)
peptide: RFRELVSEF
B23: HER2/neu peptide, position 451, 8 amino acids (peptide)
peptide: SWLGLRSL
B24: HER2/neu peptide, position 281, 11 amino acids (peptide)
peptide: SMPNPEGRYTF
B25: HER2/neu peptide, position 451, 11 amino acids (peptide)
peptide: SWLGLRSLREL
B26: HER2/neu peptide, position 281, 9 amino acids (peptide)
peptide: SMPNPEGRY
B27: HER2/neu peptide, position 898, 9 amino acids (peptide)
peptide: RFTHQSDVW
B28: HER2/neu peptide, position 917, 10 amino acids (peptide)
peptide: TFGAKPYDGI
B29: HER2/neu peptide, position 985, 10 amino acids (peptide)
peptide: RFVVIQNEDL
B30: HER2/neu peptide, position 686, 11 amino acids (peptide)
peptide: TMRRLLQETEL
B31: HER2/neu peptide, position 8, 8 amino acids (peptide)
peptide: RWGLLLAL
B32: HER2/neu peptide, position 978, 9 amino acids (peptide)
peptide: RMARDPQRF
B33: HER2/neu peptide, position 738, 11 amino acids (peptide)
peptide: IWIPDGENVKI
B34: HER2/neu peptide, position 876, 11 amino acids (peptide)
peptide: EYHADGGKVPI
B35: HER2/neu peptide, position 954, 8 amino acids (peptide)
peptide: IMVKCWMI
B36: HER2/neu peptide, position 1091, 11 amino acids (peptide)
peptide: GMGAAKGLQSL
B37: HER2/neu peptide, position 172, 8 amino acids (peptide)
peptide: IFHKNNQL
B38: HER2/neu peptide, position 553, 9 amino acids (peptide)
peptide: EYVNARHCL
B39: HER2/neu peptide, position 257, 10 amino acids (peptide)
peptide: HFNHSGICEL
B40: HER2/neu peptide, position 1022, 9 amino acids (peptide)
peptide: EYLVPQQGF
B41: HER2/neu peptide, position 370, 8 amino acids (peptide)
peptide: IFGSLAFL
B42: HER2/neu peptide, position 1022, 10 amino acids (peptide)
peptide: EYLVPQQGFF
B43: HER2/neu peptide, position 1091, 8 amino acids (peptide)
peptide: GMGAAKGL
B44: HER2/neu peptide, position 408, 8 amino acids (peptide)
peptide: GYLYISAW
B45: HER2/neu peptide, position 410, 10 amino acids (peptide)
peptide: LYISAWPDSL
B46: HER2/neu peptide, position 915, 9 amino acids (peptide)
peptide: LMTFGAKPY
B47: HER2/neu peptide, position 485, 10 amino acids (peptide)
peptide: LFRNPHQALL
B48: HER2/neu peptide, position 107, 8 amino acids (peptide)
peptide: LFEDNYAL
B49: HER2/neu peptide, position 107, 11 amino acids (peptide)
peptide: LFEDNYALAVL
B50: HER2/neu peptide, position 684, 8 amino acids (peptide)
peptide: KYTMRRLL
B51: HER2/neu peptide, position 197, 9 amino acids (peptide)
peptide: PMCKGSRCW
B52: HER2/neu peptide, position 780, 9 amino acids (peptide)
peptide: PYVSRLLGI
B53: HER2/neu peptide, position 824, 10 amino acids (peptide)
peptide: NWCMQIAKGM
B54: HER2/neu peptide, position 887, 8 amino acids (peptide)
peptide: KWMALESI
B55: HER2/neu peptide, position 485, 9 amino acids (peptide)
peptide: LFRNPHQAL
B56: HER2/neu peptide, position 887, 9 amino acids (peptide)
peptide: KWMALESIL
B57: HER2/neu peptide, position 800, 8 amino acids (peptide)
peptide: LMPYGCLL
B58: HER2/neu peptide, position 922, 10 amino acids (peptide)
peptide: PYDGIPAREI

In one assay the target is HLA-A*0201 (human). Put plainly: competitive inhibition of 125I-labeled probe peptide binding to purified HLA-A*0201. Particulars: remark: other sources report otherwise.
Broadly, the IC50 is the concentration that inhibits the measured activity by half. Molecule B1 came in with a half-inhibitory concentration (IC50) of under 500 nM. Still for that read-out and setting: as for B2, the figure is under 500 nM; as for B3, under 500 nM; as for B4, under 500 nM.

Another assay deals with HLA-A*2401 (purified HLA class I molecule) (human). The assay is described as follows: competition with 125I-labelled probe peptide for purified HLA, gel filtration.
Details: not given
For orientation: In gel filtration, larger molecules generally elute earlier.
For B5, the relative binding ratio (IC50 of standard peptide / IC50 of test peptide) was 0.022. Regarding B6, the relative binding ratio (IC50 of standard peptide / IC50 of test peptide) is 0.08.

Consider B7, for which the relative binding ratio (IC50 of standard peptide / IC50 of test peptide) was 0.0009.

As for B8, the relative binding ratio (IC50 of standard peptide / IC50 of test peptide) was found to be 0.0001. As for B9, the relative binding ratio (IC50 of standard peptide / IC50 of test peptide) was 0.0074. In the case of B10, the relative binding ratio (IC50 of standard peptide / IC50 of test peptide) is 0.0011. Same read-out and setting: as for B11, the figure is -0.0003. Same read-out and setting: with B12 the figure was 0.092. Same read-out and setting: as for B13, the figure is 8.9; as for B14, -0.0003.

Staying with this assay, now noted: scale: ratio.
Regarding B7, the relative binding ratio was determined as 0.0009.

Turning to B10, the relative binding ratio worked out at 0.0011.

In another assay the target is HLA-A*2401 (human). The assay is described as follows: inhibition of 125I-labelled standard peptide binding to purified HLA, gel filtration.
Details: not given
Consider B15, for which the relative binding ratio (IC50 of standard peptide / IC50 of test peptide) came out at 0.0059.

With B16, the relative binding ratio (IC50 of standard peptide / IC50 of test peptide) is 0.038. On the same count and under the same terms, with B17 the figure was 1.3; with B18, 0.012. With B19, the relative binding ratio (IC50 of standard peptide / IC50 of test peptide) turned out to be 0.063.

Consider B20, for which the relative binding ratio (IC50 of standard peptide / IC50 of test peptide) is 0.32. With B21, the relative binding ratio (IC50 of standard peptide / IC50 of test peptide) came to 0.12. As to B22, the relative binding ratio (IC50 of standard peptide / IC50 of test peptide) amounted to 0.018. With B23, the relative binding ratio (IC50 of standard peptide / IC50 of test peptide) was -0.0003.

For B24, the relative binding ratio (IC50 of standard peptide / IC50 of test peptide) worked out at 0.018. On the same count and under the same terms, with B25 the figure was 0.0036; with B26, 0.0001. Same read-out and setting: as for B27, the figure is 0.011; as for B28, 0.0002; as for B29, 0.0002. Consider B30, for which the relative binding ratio (IC50 of standard peptide / IC50 of test peptide) was -0.0003. Consider B31, for which the relative binding ratio (IC50 of standard peptide / IC50 of test peptide) was determined as 0.025.

Take B32: the relative binding ratio (IC50 of standard peptide / IC50 of test peptide) stood at 0.0032.

The next assay deals with HLA-A*2401 (purified HLA class I molecule) (human). Put plainly: competition with 125I-labelled standard peptide for purified HLA, gel filtration. The settings on record: scale: ratio.
For B33, the relative binding ratio came out at 0.0027. On to B34, for which the relative binding ratio was -0.0003. For the molecule B35, the relative binding ratio amounted to 0.021. With B36, the relative binding ratio is -0.0003.

For the molecule B37, the relative binding ratio is -0.0003. Still for that read-out and setting: as for B38, the figure is 0.0061; as for B39, 0.0002. As to B40, the relative binding ratio is 0.0014. As for B41, the relative binding ratio came to 0.012. With B42, the relative binding ratio is 0.012. Same read-out and setting: as for B43, the figure is -0.0003. The same measure, in the same setting: as for B44, the figure is 0.0044.

The target in another assay is HLA-A*2401 (human). Described as above.
Details: not given
Take B45: the relative binding ratio (IC50 of standard peptide / IC50 of test peptide) (ratio to standard peptide) was 0.084. Same read-out and setting: as for B46, the figure is 0.0001; as for B47, 0.0014; as for B48, 0.0006. B49: the relative binding ratio (IC50 of standard peptide / IC50 of test peptide) (ratio to standard peptide) came to 0.0006. Turning to B50, the relative binding ratio (IC50 of standard peptide / IC50 of test peptide) (ratio to standard peptide) was determined as 0.0024. Regarding B51, the relative binding ratio (IC50 of standard peptide / IC50 of test peptide) (ratio to standard peptide) was 0.0011.

On to B52, for which the relative binding ratio (IC50 of standard peptide / IC50 of test peptide) (ratio to standard peptide) was 0.17. With B53, the relative binding ratio (IC50 of standard peptide / IC50 of test peptide) (ratio to standard peptide) came to 0.0002.

In the case of B54, the relative binding ratio (IC50 of standard peptide / IC50 of test peptide) (ratio to standard peptide) is 0.008. The same measure, in the same setting: with B55 the figure was 0.0002. As to B56, the relative binding ratio (IC50 of standard peptide / IC50 of test peptide) (ratio to standard peptide) was found to be 0.015. Still for that read-out and setting: as for B57, the figure is 0.0076; as for B58, 0.0005.
